{
  "source": "patent US7943358B2",
  "about": "“Polymerase enhancing factor (PEF) extracts, PEF protein complexes, isolated PEF protein, and methods for purifying and identifying” (Agilent Technologies, Inc., priority 1997, dated 2011)",
  "molecules": {"B1": {"name": "Pfu DNA polymerase: DNA polymerase of Pyrococcus furiosus (protein, UniProt P61875 1-775, looked up)", "DNA polymerase": "MILDVDYITEEGKPVIRLFKKENGKFKIEHDRTFRPYIYALLRDDSKIEEVKKITGERHGKIVRIVDVEKVEKKFLGKPITVWKLYLEHPQDVPTIREKVREHPAVVDIFEYDIPFAKRYLIDKGLIPMEGEEELKILAFDIETLYHEGEEFGKGPIIMISYADENEAKVITWKNIDLPYVEVVSSEREMIKRFLRIIREKDPDIIVTYNGDSFDFPYLAKRAEKLGIKLTIGRDGSEPKMQRIGDMTAVEVKGRIHFDLYHVITRTINLPTYTLEAVYEAIFGKPKEKVYADEIAKAWESGENLERVAKYSMEDAKATYELGKEFLPMEIQLSRLVGQPLWDVSRSSTGNLVEWFLLRKAYERNEVAPNKPSEEEYQRRLRESYTGGFVKEPEKGLWENIVYLDFRALYPSIIITHNVSPDTLNLEGCKNYDIAPQVGHKFCKDIPGFIPSLLGHLLEERQKIKTKMKETQDPIEKILLDYRQKAIKLLANSFYGYYGYAKARWYCKECAESVTAWGRKYIELVWKELEEKFGFKVLYIDTDGLYATIPGGESEEIKKKALEFVKYINSKLPGLLELEYEGFYKRGFFVTKKRYAVIDEEGKVITRGLEIVRRDWSEIAKETQARVLETILKHGDVEEAVRIVKEVIQKLANYEIPPEKLAIYEQITRPLHEYKAIGPHVAVAKKLAAKGVKIKPGMVIGYIVLRGDGPISNRAILAEEYDPKKHKYDAEYYIENQVLPAVLRILEGFGYRKEDLRYQKTRQVGLTSWLNIKKS"}},
  "type_in_all_cases": "biochemical",
  "key": {"[1]": {"molecular_target": "T1, cloned Pfu DNA polymerase (Pyrococcus furiosus, UniProt P61875)", "T1 sequence (P61875 1-775)": "B1 DNA polymerase", "assay": "6.2 kb primer-template PCR enhancing assay", "conditions": "protein concentrations comparable to or greater than gel-purified PEFs", "procedure": "One embodiment of an assay used to screen for PEFs, in this case from Pyrococcus furiosus, involved amplifying a 6.2 kb target from transgenic mouse DNA (6.2 kb primer-template assay). A master PCR cocktail was prepared consisting of: 200 μM each dNTP, 2 μg/ml primer F432-21 (5′-CTA-TTG-AGT-ACG-AAC-GCC-ATC) (SEQ ID NO.: 62), 2 μg/ml primer R6656-20 (GTC-ACG-CTT-GCT-CCA-CTC-CG) (SEQ ID NO: 63), 2.5 μg/ml λAA742 DNA (transgenic mouse DNA having 40 copies of a lambda phage DNA shuttle vector), 1× cloned Pfu DNA polymerase PCR buffer (10 mM KCl, 10 mM (NH4)2SO4, 20 mM Tris-HCl (pH 8.8), 2 mM MgSO4, 0.1% (v/v) Triton X-100, and 100 μg/ml BSA), and 25 U/ml cloned Pfu DNA polymerase. Samples were diluted in 1× cloned Pfu DNA polymerase PCR buffer, and 1 μl of each diluted sample was added to 24 μl of the PCR cocktail. PCR amplifications were conducted on the RoboCycler 96 Temperature Cycler (Stratagene), using the following conditions: 96° C. for 45 s (1 cycle)/96° C. for 45 s; 60° C. for 45 s; 72° C. for 14 min. (35 cycles)/72° C. for 10 min. (1 cycle). PCR products (10 μl/lane) are run out on 1% agarose gels and PCR product bands visualized by ethidium bromide staining. […] When PCR enhancement is due to the presence of PEFs, rather than contaminating endogenous DNA polymerase activity, amplifications performed in the absence of […] yield no PCR product. Moreover, PCR amplifications performed in the absence of exogenous DNA template should yield no PCR product when the PEF sample lacks contaminating target DNA."}, "[2]": {"assay": "PCR cycling of dCTP in the presence of PEF or Pfu DNA polymerase, HPLC", "conditions": "10 mM dCTP, 1.25 U Pfu/μl"}, "[3]": {"test_system": "gapped-duplex calf thymus DNA", "assay": "DNA polymerase activity, gapped-duplex calf thymus DNA assay", "conditions": "30 minutes at 72° C.", "procedure": "Initially and as a control to confirm the activity of the DNA polymerase used, gapped-duplex calf thymus DNA (Pharmacia) assays were performed. The polymerase cocktail contained 50 mM Tris-HCl, pH 8.0, 5 mM MgCl2, 1 mM DTT, 50 μg/m BSA, 4% glycerol, 200 μM each dNTP, [^3H]TTP (0.5 mCi·μmole final concentration), and 250 μg/ml of activated calf thymus DNA (Pharmacia). Samples containing Pfu DNA polymerase or P. furiosus PEF were serially diluted in Pfu DNA polymerase storage buffer (50 mM Tris-HCl, pH 8.2, 0.1% NP-40, 0.1% Tween-20, 0.1 mM EDTA, 1 mM DTT, 50% glycerol) and then 1 μl of each dilution was added to 10 μl aliquots of polymerase cocktail. Polymerization reactions were conducted in triplicate for 30 minutes at 72° C. The extension reactions were quenched on ice, and then 5 μl aliquots were spotted immediately onto DE81 filters (Whatman). Unincorporated [^3H]TTP was removed by 6 washes with 2×SCC (0.3M NaCl, 30 mM sodium citrate, pH 7.0), followed by one wash with 100% ethanol. Incorporated radioactivity was measured by scintillation counting. The assay was calibrated by counting a known amount of [^3H]TTP on DE-81 filters, omitting the wash steps. One unit of polymerase activity is defined as the amount of enzyme which catalyzes the incorporation of 10 nmoles of total dNTP into polymeric form (binds to DE-81 paper) in 30 minutes at 72° C. […]"}},
  "data": [
    {"molecule": "B1", "values": [
      {"measurement": "PCR enhancing activity (in words)", "setting": "[1]", "result": "lacks PCR enhancing activity"},
      {"measurement": "change in dCDP, dCMP or dUTP produced when dCTP cycled with Pfu DNA polymerase", "setting": "[2]", "result": "no difference"},
      {"measurement": "specific activity (DNA polymerase)", "setting": "[3]", "result": "2-4×10^4 u/mg"}
    ]}
  ]
}
